Laboratory results as given in the nanobody polyreactivity screen of Harvey et al. (2022).

Experiment: yeast display, Sf9 membrane polyspecificity reagent, FACS + sequencing; frameworks hold sequencing errors
Method in brief: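 Genes from sorted yeast were amplified by colony PCR, read by MiSeq 2 × 250 sequencing and filtered on CDR length. These cells carried a synthetic nanobody library in Saccharomyces cerevisiae BJ5465 and were sorted by FACS into low and high (top ~1%) gates on anti-HA and streptavidin fluorescence. Polyreactivity is labelled according to the gate of origin.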

Row | Sequence | polyreactivity (PSR sort gate)
1 | QVQLVESGGGLVQAGGSLRLSCAASGSTFYYYAMGWYRPAPGKERELVAAINYNGGSTHYADSVKGRFTISRDNAKNTVYLQMNSLKPEDTAVYYCAAKYRLSYTHGYWGQGTQVTVSS | low polyreactivity
2 | QVQLVESGGGLVQAGGSLRLSCAASGSTFYYYAMGWYRQAPGKEREFVAAISGGDGTTSYADSVKGRFTISRDNAKNTVYLQMNSLKPEDTAVYYCATPYTSYLYGYDYWGQGTQVTVSS | low polyreactivity
3 | QVQLVESGGGLVQAGGSLRLSCAASGSTFYYYAMGWYRQAPGKEREFVASISSRGTSTYYADSVKGRFTISRDNAKNTVYLQMNRLKPEDTAVYYCAARGWGPTRAYDYWGQGTQVTVSS | high polyreactivity
4 | QVQLVESGGGLVQAGGSLRLSCAASGSTFYYYAMGWYRQAPGKERELVAAINYNGGSTHYADSVKGRFTISRDNAKNTVYFQMNSLKPEDTAVYYCAAKYRLSYTHGYWGQGTQVTVSS | low polyreactivity
5 | QVQLVESGGGLVQAGGSLRLSCAASGSTFYYYAMGWYRQAPGKERELVAAIRSSGGSTYYADSVKGRFTISRDNAKNTVYLQMNSLKPEDTAVYYCIHYLSTYHGTFTYGYWGQGTQVTVSS | low polyreactivity
6 | QVQLVESGGGLVQAGGSLRLSCAASGSTFYYYAMGWYRQAPGKERELVATIDSGTSTYYADSVKGRFTISRDNAKNTVYLQMISLKPEDTAVYYCAAKTWSWSYGYNYWGQGTQVTVSS | low polyreactivity
7 | QVQLVESGGGLVQAGGSLRLSCAASGSTFYYYAMGWYRQAPGKERELVATISSGSSTNYADSVKGRFTISRDNAKNTVYLQMNCLKPEDTAVYYCAADRWYITLSIDATISYDYWGQGTQVTVSS | low polyreactivity
8 | QVQLVESGGGLVQAGGSLRLSCAASGSTFYYYAMGWYRQAPGKERELVAVIRDSDGSTDYADSVKGRFTISRDKAKNTVYLQMNSLKPEDTAVYYCAATNVRGVYYWGQGTQVTVSS | high polyreactivity
9 | QVQLVESGGGLVQAGGSLRLSCAASGSTFYYYAMGWYRQAPGKVRELVATISWSGDSTYADSVKGRFTISRDNAKNTVYLQMNSLKPEDTAVYYCATSGDWWGFRYVYWGQGTQVTVSS | low polyreactivity
10 | QVQLVESGGGLVQAGGSLRLSCAASGSTFYYYGMGWYRQAPGKERELVATISGSGGSTYYADSVKGRFTITRDNAKNTVYLQMNSLTQEDTSVYYCNKDVLPSQTYSNVYWGQGTQVSVSS | low polyreactivity
11 | QVQLVESGGGLVQAGGSLRLSCAASGSTFYYYVMGWYRQAPGKERELVAAISRGGGSTYYADSVKGRFTISRDNAKNTVYLQMNSLKPEDTAVYYCAAASYYVEGDYWGQGTQVTVSS | low polyreactivity
12 | QVQLVESGGGLVQAGGSLRLSCAASGSTFYYYVMGWYRQAPGKERELVAVISKSGGSTRYADSVKGRFTISRDNAKNTVYLQMNSLKPEDTAVYYCAADGLRLVPGYKYDYWGQGTQVTVSS | high polyreactivity
13 | QVQLVESGGGLVQAGGSLRLSCAASGSTGYYAMGWYRQAPGKERELVAAISYRGASTYYADSVKGRFTISRDNAKNTVYLQMNSLKPEDTAVYYCAALRQERVKYGYWGQGTQVTVSS | high polyreactivity
14 | QVQLVESGGGLVQAGGSLRLSCAASGSTIATYAMGWYRQAPGKERELVATISSSGSGTYYADSVKGRFTISRDNAKNTVYLQMNSLKPEDTAVYYCAVDSRGKLGISGEYGYWGQGSQVTVSS | low polyreactivity
15 | QVQLVESGGGLVQAGGSLRLSCAASGSTIDINTKGWYRQAPGKEREFVAAITDSDDSTYYADSVKGRFTISRDNAKNTVYLQMNSLKPEDTAVYYCATDPDYVLYRTAYYEYDYWGQGTQVTVSS | low polyreactivity
16 | QVQLVESGGGLVQAGGSLRLSCAASGSTIDVYTMGWYRQAPGKERELVAAISRGSSTYYADSVKGRFTISRDNAKNTVYLQMNSLKPEDTAVYYCNAVTSRKYRRYGYGYWGQGTQVTVSS | high polyreactivity
17 | QVQLVESGGGLVQAGGSLRLSCAASGSTIDVYTMGWYRQAPGKERELVAAISRGSSTYYADSVKGRFTISRDNAKYTVYVQMNSLKPEDTAVYYCNAVTSRKYRRYGYGYWGQGTQVTVSS | high polyreactivity
18 | QVQLVESGGGLVQAGGSLRLSCAASGSTIDYYAMGWYRQAPGKERELVAGIDSAGSTNYADSVKGRFTISRDNAKNTFYLQMNSLKTGRYRGLYCNVGKTITTYAFTTFDYWGQGTHVTVSS | low polyreactivity
19 | QVQLVESGGGLVQAGGSLRLSCAASGSTIEPYAMGWYRQAPGKERELLAAITLSAGSTYYADSVKGRFTISRDYAKNTVYLQMNSLNPEDTAVYYCNADYGYNNQLLWGYYGWSSDHWGQGTQVTVSS | low polyreactivity
20 | QVQLVESGGGLVQAGGSLRLSCAASGSTIFAYAMGWYRQAPGKERELVAAIRRGGTSTYYADSVKGRFTISRDNAKNTVYLQMNSLKPEDTAVYYCNKAYITKRGVSGSNDYWGQGTQVTVSS | low polyreactivity
21 | QVQLVESGGGLVQAGGSLRLSCAASGSTIFGNVMGWYRQAPGKERELVAAISKTGGNTYYADSVKGRFTISRDNAKNTVYLQMNSLKPEDTAVYYCNALRGDWRDMGYWGQGTQVTVSS | high polyreactivity
22 | QVQLVESGGGLVQAGGSLRLSCAASGSTIGPYAMGWSRQAPGKERELVAAITISGDSTNYADSVKGRFTISRDNAKNTVYLQMLSLKPEDTAVYYCAAAYYWLQSWYDYWGQGTLVTVSS | low polyreactivity

Row | Sequence | polyreactivity (PSR sort gate)
23 | QVQLVESGGGLVQAGGSLRLSCAASGSTIGRNAMGWDRQAPGNERELVASITDSSGSPNYADSVKGRFTISRDNAKNSVYLQMHSLKPEDTAVYYCATGYYYYTRYRYHTKYYSWGQGTQVTVSS | high polyreactivity
24 | QVQLVESGGGLVQAGGSLRLSCAASGSTIGSYAMGWYRQAPGKERELVAAITWNGGGTYYADSVKGRFTISRDNAKNTVYLQMNSLKPEDTAVYYCAADGWFGRVAPGSDYWGQGTQVTVSS | low polyreactivity
25 | QVQLVESGGGLVQAGGSLRLSCAASGSTIHDYAMGWYRQAPGKEREFVAAISNSGGSTYYADSLKGRFTISRDNAKNTVYLQMNSLKPEDTAVYYCAADGRWYWDYEYWGQGTQVTVSS | low polyreactivity
26 | QVQLVESGGGLVQAGGSLRLSCAASGSTIHINAMGWYRQAPGKERELVADINWSGGSTYYADSVKGRFTISRDNAKNTVYLQMNSLKPADSAVYYCAADVGVFTYSPYDAGEHDYWGQGSQVTVSS | low polyreactivity
27 | QVQLVESGGGLVQAGGSLRLSCAASGSTIIRNAMGWYRQAPGKERELVAAISTSAGRTHYADSVKGRFTISRDHAKNTVYLNMNSLKPEDTAVSYCATRGKGHYYYWGQGTKVTVSS | high polyreactivity
28 | QVQLVESGGGLVQAGGSLRLSCAASGSTIKTYATMGWYRQAPGKERELVSAITSGSSTNYADSVKGRFTISRDNAKNNVYLQMNSLKPEATAVYYCAADDYYNWYLGEPGDYWGQGTQVTVSS | low polyreactivity
29 | QVQLVESGGGLVQAGGSLRLSCAASGSTILYYGMGWYRQAPGKERELVATITWRGGRTYYADSVKGRFTISRDNAKNTVYLQMNSLKTEDTAVYYCARVRLTTYGYYSWGQGTQVTVSS | high polyreactivity
30 | QVQLVESGGGLVQAGGSLRLSCAASGSTIPYNTMGWYRQAPGKERELVAAISSSCRSTYYADSVKGRFTISRDNAKKTVYLQMNSLKPEDTAVYYCNAQIVASYQARRYYYWGQGTQVTVSS | low polyreactivity
31 | QVQLVESGGGLVQAGGSLRLSCAASGSTIRGYAMGWYRQVTGKEREMGADISWSGTSTKYADSVKGRFTISRDNAKNTVYLQMNSLKPEDTAVYYCAKRYVRFPWRMDYWGQGTQVTVSS | high polyreactivity
32 | QVQLVESGGGLVQAGGSLRLSCAASGSTIRKYAMGWYRQAPGKERELVAAISARGGSTYYADSVKGRFTISRDNAKNTVYLQMNSLNPEDTAVYYCAADGYRPYSTFDYWGQGTQVTVSS | high polyreactivity
33 | QVQLVESGGGLVQAGGSLRLSCAASGSTIRYYAMGWYRQAPGKERELVAAITSSGTSTYYADSVKGRFTISRDNAKNTVDLQMNRLKPEDTAVYYCAARPVYKWVSSRYDYWGQGTQVTVSS | low polyreactivity
34 | QVQLVESGGGLVQAGGSLRLSCAASGSTISPNAMGWYRQAPGKERELVPAITWSGGSNTYADSVKGRFTISRDNAKNTVYLQMNSLKPEDTAVYYCATVGYLYTPVVVTWWDWGDYWGQGTQVTVSS | low polyreactivity
35 | QVQLVESGGGLVQAGGSLRLSCAASGSTITFYTMGWYRQEPGKEREFVADIDDSGGITYYADSVKGRFTISRDNAKNTVYLQMNSLKPEDTAVYSCAAEYWTACYWICVDYWGQGTQVTVSS | high polyreactivity
36 | QVQLVESGGGLVQAGGSLRLSCAASGSTITYYTMGWYRQAPGKERELVAAISGSGGRTYYADSVKGRFTISRDNAKNTVYLQMNSLKPEDTAVYYCAAVYQLSRYDYWGQGTQVTVSS | high polyreactivity
37 | QVQLVESGGGLVQAGGSLRLSCAASGSTIVVYAMGWYRQAPGKARELVAAITTSDDSTYYADSVKGRFTISRDNAKNTVYLQMNSLKPEDTAVYYCAATLRWQDGYSGQGTQVTVSS | low polyreactivity
38 | QVQLVESGGGLVQAGGSLRLSCAASGSTIVYYAMGWYRQAPGKERELVAAINYSSGSTYYADSVKGRFTISRDNSKNTVYLQMNSLKPEDTAVYYCATDLLYYQYYSEYDYWGQGTQVTVSS | high polyreactivity
39 | QVQLVESGGGLVQAGGSLRLSCAASGSTIYFYAMGWYRQAPGKERELVAAITRSGSTYYADSVKGRFTISRDNAKNTVYLQLNSLKPEDTAVYYCNADQYYGCRYVYLRHYNYWGQGTQVTVSS | high polyreactivity
40 | QVQLVESGGGLVQAGGSLRLSCAASGSTIYLYDMGWYRQAPGKERELVATITSGTSTTYADSVKGRFTISRDYAKNTVYLQMNSLKPADTAVYYCNATDVGIITVGYGHGGYYWGQGTQVTVSS | low polyreactivity
41 | QVQLVESGGGLVQAGGSLRLSCAASGSTIYPYAMGWYRQAPGKERELVAAISSGGRTYYADSEKGRFTISRDKAKNTVYLQMNSLKPEDPAVYYCAARVTKKYRRTYDYWGQGTQVTVSS | high polyreactivity
42 | QVQLVESGGGLVQAGGSLRLSCAASGSTIYRNAMVWYRQAPGKERELVAAISKSGGSTYYADTVKGRFTISRDNAKNTVYLQMNSQKPEDTAVYYCNSRYWVTTGGYWGQGTQVTVSS | high polyreactivity
43 | QVQLVESGGGLVQAGGSLRLSCAASGSTIYVYAMGWYRQAPGKERELVAAITDSGGSTYADSVKGRFTISRDNAKNTVYLQMNSLKPEDTAVYADSTYNWYYYYWGQGTQVTVSS | low polyreactivity
